Measurements: patent US20190328889A1

Assays:
[1] = target: Fc receptors on U937 cells (human; IFNγ-activated or non-activated) (human); assay: flow cytometry competition on IFNγ-activated U937 cells; competitor 1 µM BDB; Nip228 at 0.001-5 µM
[2] = target: Fc receptors on U937 cells (human; IFNγ-activated or non-activated) (human); assay: flow cytometry competition on IFNγ-activated U937 cells; competitor 1 µM cp33; Nip228 at 0.001-5 µM

control monoclonal human IgG1 (Nip228, MedImmune Ltd), unlabelled (antibody)
IgG1 concentration above which the peptide is displaced [1]: 10 nM
IgG1 concentration above which the peptide is displaced [2]: 10 nM
